# Reference: paper PMC9657779, “Regulatory Role of Sphingosine-1-Phosphate and C16:0 Ceramide, in Immunogenic Cell Death of Colon Cancer Cells Induced by Bak/Bax-Activation” (Cancers, 2022)
# B1: calreticulin (natural protein, human (endogenous in DLD-1), UniProt P27797 18-417, looked up)
# chain: EPAVYFKEQFLDGDGWTSRWIESKHKSDFGKFVLSSGKFYGDEEKDKGLQTSQDARFYALSASFEPFSNKGQTLVVQFTVKHEQNIDCGGGYVKLFPNSLDQTDMHGDSEYNIMFGPDICGPGTKKVHVIFNYKGKNVLINKDIRCKDDEFTHLYTLIVRPDNTYEVKIDNSQVESGSLEDDWDFLPPKKIKDPDASKPEDWDERAKIDDPTDSKPEDWDKPEHIPDPDAKKPEDWDEEMDGEWEPPVIQNPEYKGEWKPRQIDNPDYKGTWIHPEIDNPEYSPDPSIYAYDNFGVLGLDLWQVKSGTIFDNFLITNDEAYAEEFGNETWGVTKAAEKQMKDKQDEEQRLKEEEEDKKRKEEEEAEDKEDDEDKDEDEEDEEDKEEDEEEDVPGQAKDEL
# notes: calreticulin (CRT), the normally ER resident chaperone, endogenous in human colorectal DLD-1 cells; Seen as a disulfide-linked dimer on Western blots run under non-reducing conditions; also called CRT; ectoCRT; source: endogenous, DLD-1 whole cell lysate (RIPA)
# Biological target: the molecule itself
# Assay: non-reducing SDS-PAGE and Western blot; whole cell lysates of DLD-1 cells treated with ABT/AZD or MTX, with or without PF-543 (also thapsigargin, fumonisin B1; CerS6 knock-out cells), under non-reducing conditions, blotted for CRT; disulfide-linked dimer
protein,measurement,value
B1,stoichiometry N,2
